The results in this text go back to publication PMC3796367.

Assay [1] addresses Pks4 SAT(C117A)-KS-MAT tridomain. Nature of the assay: cross-linking.
Assay [2] has the same target. Nature of the assay: ITC. In general terms: ITC needs no label: the signal is the heat of the interaction.

For the substance “Pks4 ACP loaded with a pantetheine crosslinker (crypto-ACP) (domain or fragment)”, in assay [1], the stoichiometry N (ACP monomers per S0KM dimer) is 2.

As to “Pks4 apo-ACP (stand-alone ACP domain of Pks4) (domain or fragment)”, in assay [2], the Kd – broadly, a measure of binding affinity in units of concentration – came out at 15 µM.

On to “PksA apo-ACP (stand-alone ACP domain of PksA) (domain or fragment)”, for which the Kd in assay [2] is 30 µM.
